Test results: patent US8067005

Target: T1, human TNF (human, UniProt P01375 77-233)
T1 construct: Passed over captured antibody in solution; also called human TNFα
Test: SPR (BIAcore); antibody captured by immobilized anti-Fab′ antibody, human TNF passed over

T1 sequence (P01375 77-233 limits assumed): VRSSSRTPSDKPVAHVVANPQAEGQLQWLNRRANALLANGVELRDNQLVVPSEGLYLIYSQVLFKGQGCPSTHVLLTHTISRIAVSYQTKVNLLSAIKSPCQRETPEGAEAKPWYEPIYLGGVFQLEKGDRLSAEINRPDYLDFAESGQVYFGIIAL

- Kd: 0.179 nM
B1: hTNF40 IgG (antibody, V domains shown)
VH: QIQLVQSGPELKKPGETVKISCKASGYVFTDYGMNWVKQAPGKAFKWMGWINTYIGEPIYVDDFKGRFAFSLETSASTAFLQINNLKNEDTATYFCARGYRSYAMDYWGQGTSVTVSS
VL: DIVMTQSQKFMSTSVGDRVSVTCKATQNVGTNVAWYQQKPGQSPKALIYSASFLYSGVPYRFTGSGSGTDFTLTISTVQSEDLAEYFCQQYNIYPLTFGAGTKLELKR
